Assay [1] addresses unmodified C62A ThfA (Thermobifida fusca). Put plainly: BLI. Background: Biolayer interferometry detects binding as a change in optical thickness at a sensor tip.
Assay [2] has as its target doubly dehydrated C62A ThfA (Thermobifida fusca). Description: BLI.

The term Kd denotes the constant that tells how readily two partners part at equilibrium. Read a high Kd as a looser complex. “maltose binding protein (MBP) fusion to ThfB (enzyme)”: the dissociation constant Kd in assay [1] was 28 nM; in assay [2], 18 nM.
